These results are taken from patent US20120040896.

For data set [1], the system named is GST-BRCA1 fusion protein A509+S694 (T509A mutant, nucleotides 1323-2538).
The subject of data set [2] is GST-BRCA1 fusion protein E509+S694 (phospho-mimic T509E mutant, nucleotides 1323-2538).
For data set [3], the system named is GST-BRCA1 fusion protein S694/T696 (nucleotides 1926-2538).
Data set [4] concerns GST-BRCA1 fusion protein T1246 (nucleotides 3714-4310).
The subject of data set [5] is GST-BRCA1 fusion protein T509 (nucleotides 1323-1886).
In data set [6] the test system is GST-BRCA1 fusion protein wild-type T509+S694 (nucleotides 1323-2538).
GST-BRCA1 fusion protein wild-type T509+S694 (nucleotides 1323-2538), sequence (chain, as listed by the source): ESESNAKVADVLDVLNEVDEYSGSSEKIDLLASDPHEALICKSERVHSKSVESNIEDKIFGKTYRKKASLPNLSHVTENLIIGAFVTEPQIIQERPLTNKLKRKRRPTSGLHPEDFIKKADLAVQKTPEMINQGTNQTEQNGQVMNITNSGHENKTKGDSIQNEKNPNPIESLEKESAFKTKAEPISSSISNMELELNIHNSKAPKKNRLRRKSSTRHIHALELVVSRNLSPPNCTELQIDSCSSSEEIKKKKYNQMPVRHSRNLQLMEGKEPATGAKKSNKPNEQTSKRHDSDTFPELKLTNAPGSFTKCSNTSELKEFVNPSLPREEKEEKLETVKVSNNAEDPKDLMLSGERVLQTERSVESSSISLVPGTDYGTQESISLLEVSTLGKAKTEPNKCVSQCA
Data set [7] deals with GST-BRCA1 fusion protein with a T509A mutation (A509, nucleotides 1323-1886).
Data set [8] deals with purified full length BRCA1 protein (ProteinOne).

GST-BRCA1 fusion protein T509 (nucleotides 1323-1886), sequence (chain, as listed by the source): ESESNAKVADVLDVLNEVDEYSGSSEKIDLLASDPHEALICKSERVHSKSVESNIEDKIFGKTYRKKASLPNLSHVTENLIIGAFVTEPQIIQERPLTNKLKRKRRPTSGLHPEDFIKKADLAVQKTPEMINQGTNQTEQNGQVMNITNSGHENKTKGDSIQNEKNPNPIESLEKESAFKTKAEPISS
GST-BRCA1 fusion protein T1246 (nucleotides 3714-4310), sequence (chain, as listed by the source): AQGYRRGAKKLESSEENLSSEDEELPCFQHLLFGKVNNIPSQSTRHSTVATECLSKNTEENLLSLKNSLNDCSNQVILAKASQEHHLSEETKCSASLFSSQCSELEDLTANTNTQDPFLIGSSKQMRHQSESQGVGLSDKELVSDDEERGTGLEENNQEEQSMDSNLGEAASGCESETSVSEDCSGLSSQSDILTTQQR
GST-BRCA1 fusion protein S694/T696 (nucleotides 1926-2538), sequence (chain, as listed by the source): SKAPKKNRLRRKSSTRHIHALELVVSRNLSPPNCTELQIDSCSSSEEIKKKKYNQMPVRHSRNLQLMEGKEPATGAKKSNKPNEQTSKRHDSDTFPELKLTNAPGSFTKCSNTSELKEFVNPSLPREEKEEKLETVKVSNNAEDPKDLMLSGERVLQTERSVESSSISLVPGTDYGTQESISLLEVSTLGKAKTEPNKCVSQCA

Regarding purified active Akt1, the “in vitro Akt kinase assay (phosphorylation signal)” value in data set [1] is given as “equally phosphorylated by Akt, with the intensity of these signals approximately equal to one half of the signal obtained with the wild-type T509+S694 construct”; in data set [2] it was “equally phosphorylated by Akt, with the intensity of these signals approximately equal to one half of the signal obtained with the wild-type T509+S694 construct”; in data set [6] it was “the signal obtained with the wild-type T509+S694 construct”. Moreover, the “in vitro Akt kinase assay (phosphorylation)” value in data set [3] is “both the T509 and S694/T696 constructs were strongly phosphorylated”; in data set [4] it was “T1246 did not appear to be phosphorylated”; in data set [5], “both the T509 and S694/T696 constructs were strongly phosphorylated”; in data set [7], “A fusion protein with a T509A mutation was not phosphorylated”. Further, in data set [8], the “in vitro kinase reaction (phosphorylation)” value is “full length BRCA1 is phosphorylated by Akt in vitro”.
